This series is described as follows: protein stability index of a GFP-peptide fusion (yeast GPS) (PSI 1-4); higher = more stable; sorted into four equal gates, so the index is relative within each strain. Summed up:
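The protein stability index of a peptide was calculated by multiplying its read frequency in each gate by that gate's number and adding the products. The peptides were tiled 17-residue stretches of yeast proteins, fused downstream of GFP on a Cherry-expressing plasmid and carried in yeast as a pooled library. Mid-log cultures in leucine-free medium were sorted into four equal gates by GFP/Cherry ratio, and each gate's plasmids were PCR-amplified and Illumina-sequenced.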

± gives the uncertainty stated by the source.

For the sequence TNVQRIAAYIRRHRNPD [SMC1], the protein stability index by setting is: (doa10∆) 3.1 ± 0.24; (pdr5∆) 3.32 ± 0.22; (san1∆) 3.29 ± 0.18; (ubr1∆) 3.04 ± 0.16.
For TPAMIPYPGSPMHSIMP [DSN1], the protein stability index runs as follows: (doa10∆) 2.8 ± 0.037; (pdr5∆) 2.67 ± 0.034; (san1∆) 2.88 ± 0.036; (ubr1∆) 2.846 ± 0.025.
For TPKITAAEKSFKPPKNK [SEC65], in that order: 2.9 ± 0.28, 3.14 ± 0.2, 3.04 ± 0.12 and 3.14 ± 0.12.
The matching figures for TPSQIGVLLRDAHGVTQ [RPS13]: 1.74 ± 0.083, 1.81 ± 0.15, 1.91 ± 0.13 and 2.05 ± 0.037.
For TPSTETAASVFKELCYE [PRE3], in that order: 1.92 ± 0.048, 2.1 ± 0.052, 2.29 ± 0.062 and 1.84 ± 0.038.
For TQATSEDGTSASFQIVE [RPC19], the protein stability index reads like this: (doa10∆) 2.88 ± 0.073; (pdr5∆) 3.18 ± 0.079; (san1∆) 3.05 ± 0.051; (ubr1∆) 3.12 ± 0.068.
In the case of TQGGNVNLDNTAVGKAA [RPT5], the protein stability index (doa10∆) worked out at 3.11 ± 0.053, the protein stability index (pdr5∆) was 3.28 ± 0.052, the protein stability index (san1∆) turned out to be 3.277 ± 0.032 and the protein stability index (ubr1∆) is 3.17 ± 0.038.
As for TQKRTHVLKKNPLKNKQ [RPL4A], the protein stability index (pdr5∆) amounted to 2.52 ± 0.22 and the protein stability index (ubr1∆) turned out to be 2.99 ± 0.14.
Consider TQNSRHYMVHEALNLLK [LIN1], for which the protein stability index by setting is: (doa10∆) 3.03 ± 0.086; (pdr5∆) 2.98 ± 0.075; (san1∆) 2.76 ± 0.077; (ubr1∆) 3.07 ± 0.064.
As to TQTVSGTPPMLHQRTHK [DSN1], the protein stability index by setting is: (doa10∆) 2.97 ± 0.12; (pdr5∆) 3.11 ± 0.097; (san1∆) 2.89 ± 0.16; (ubr1∆) 2.98 ± 0.088.
The matching figures for TQVALNESEKDQWLEEY [UBP6]: 3 ± 0.1, 2.55 ± 0.07, 2.66 ± 0.077 and 2.88 ± 0.055.
The matching figures for TRHQNTIHAKRKIVFRC [RPN4]: 2.75 ± 0.052, 2.85 ± 0.059, 2.8 ± 0.07 and 2.64 ± 0.052.
Regarding TRKAARPQKLRASLVPG [RPL6A], the protein stability index reads like this: (doa10∆) 1.47 ± 0.21; (pdr5∆) 1.5 ± 0.12; (ubr1∆) 2 ± 0.12.
TRKAMLDPLEVHMLDFP [PRP8] returned a protein stability index (doa10∆) of 2.84 ± 0.061, a protein stability index (pdr5∆) of 2.94 ± 0.06, a protein stability index (san1∆) of 3.03 ± 0.054 and a protein stability index (ubr1∆) of 3 ± 0.048.
The matching figures for TRQSSRNFDTHENYIQD [MCD1]: 2.92 ± 0.098, 3.03 ± 0.082, 2.84 ± 0.08 and 2.69 ± 0.056.
The matching figures for TSALSELSGLISSAKLD [QCR2]: 1.69 ± 0.1, 2 ± 0.083, 1.7 ± 0.13 and 1.94 ± 0.11.
Regarding TSGKVELPKKLLNLPPF [SRB8], the protein stability index runs as follows: (doa10∆) 2.57 ± 0.27; (pdr5∆) 3.1 ± 0.25; (san1∆) 2.67 ± 0.26; (ubr1∆) 2.55 ± 0.14.
On to TSKSFSKLLYDDVTCDK [SIN4], for which the protein stability index runs as follows: (doa10∆) 3.01 ± 0.077; (pdr5∆) 2.9 ± 0.051; (san1∆) 2.7 ± 0.054; (ubr1∆) 3.16 ± 0.039.
For TSKSLVKRYRLAPTQLS [SIN4], in that order: 2.63 ± 0.06, 2.26 ± 0.051, 2.11 ± 0.077 and 2.66 ± 0.037.
The matching figures for TSMTGDANLLEEGETSR [SWI3]: 3.2 ± 0.092, 3.35 ± 0.097, 3.2 ± 0.037 and 3.3 ± 0.041.
The matching figures for TSNWEIYKPLLFEIVSN [SRB8]: 1.59 ± 0.062, 2.05 ± 0.066, 2.11 ± 0.14 and 1.23 ± 0.08.
TSPEKKDGGDKPPSSAF [YAR002W/NUP60]: the protein stability index came out at 3.42 ± 0.13 (doa10∆), 3.34 ± 0.075 (pdr5∆), 3.3 ± 0.081 (san1∆) and 3.72 ± 0.11 (ubr1∆).
As to TSPLYMDPGAPLPVETP [SSN2], the protein stability index reads like this: (doa10∆) 3.09 ± 0.12; (pdr5∆) 2.82 ± 0.12; (san1∆) 2.75 ± 0.17; (ubr1∆) 2.81 ± 0.11.
The matching figures for TSPQYIPSPLSSTKPPG [NUT1]: 2.51 ± 0.039, 2.42 ± 0.034, 2.4 ± 0.048 and 2.45 ± 0.029.
For TSQYGTPSTETAASVFK [PRE3], in that order: 1.71 ± 0.046, 2.29 ± 0.042, 2.1 ± 0.047 and 2.27 ± 0.045.
Take TTIDSLNAELESKLIPQ [SMC3]: the protein stability index is, setting by setting: (doa10∆) 3.06 ± 0.12; (pdr5∆) 3.03 ± 0.085; (san1∆) 2.46 ± 0.14; (ubr1∆) 3.1 ± 0.066.
For TTLKSVTIASEIYYDPD [RPO21], in that order: 2.75 ± 0.1, 2.45 ± 0.085, 2.82 ± 0.099 and 2.24 ± 0.055.
